± gives the uncertainty stated by the source.
B1: Peroxisome proliferator-activated receptor delta, residues 71 to 145; numbered along this chain, Q03181 (parent)
chain: NMECRVCGDKASGFHYGVHACEGCKGFFRRTIRMKLEYEKCERSCKIQKKNRNKCQYCRFQKCLALGMSHNAIRF
B2: POU domain, class 2, transcription factor 2, residues 200 to 269; numbered along this chain, P09086 (parent)
chain: LEELEQFARTFKQRRIKLGFTQGDVGLAMGKLYGNDFSQTTISRFEALNLSFKNMCKLKPLLEKWLNDAE

Variants of: B1
Experiment: abundance fitness (aPCA) (normalised: wild type 0, dead -1); higher = more abundant; growth selection in yeast, the domain comes from the species named
Conditions: Homo sapiens

Variant | abundance fitness
N1Q | -0.218 ± 0.12
N1L | -0.455 ± 0.084
N1I | 0.16 ± 0.078
N1K | -0.075 ± 0.073
N1D | -0.049 ± 0.066
N1R | -0.296 ± 0.064
N1G | -0.212 ± 0.049
N1E | -0.07 ± 0.065
N1W | -0.593 ± 0.12
N1P | -0.475 ± 0.21
N1H | -0.155 ± 0.11
N1T | -0.012 ± 0.067
N1A | -0.179 ± 0.067
N1C | -0.421 ± 0.11
N1V | -0.141 ± 0.057

Variants of: B2
Experiment: as above
Conditions: Homo sapiens

Variant | abundance fitness
T21F | -0.625 ± 0.13
T21R | -0.14 ± 0.03
T21Y | -0.77 ± 0.2
T21Q | -0.205 ± 0.058
T21S | -0.044 ± 0.042
L58Q | -0.194 ± 0.08
L58V | -0.005 ± 0.037
L58I | 0.057 ± 0.11
L58T | -0.049 ± 0.061
L58G | -0.619 ± 0.042
L66W | -0.232 ± 0.058
L66D | -0.358 ± 0.18
L66F | -0.27 ± 0.11
L66P | -0.719 ± 0.3
L66I | 0.03 ± 0.11
L66H | -0.526 ± 0.36
L66G | -0.38 ± 0.046
L66V | 0.007 ± 0.045
K17D | 0.016 ± 0.082
K17H | -0.2 ± 0.086
K17L | -0.006 ± 0.036
K17V | -0.063 ± 0.04
K17W | -0.129 ± 0.052
K17R | 0.006 ± 0.039
I42L | -0.073 ± 0.038
I42C | -0.375 ± 0.16

Variant | abundance fitness
I42T | -0.552 ± 0.077
I42K | -0.979 ± 0.15
M55V | -0.142 ± 0.033
M55W | -0.24 ± 0.037
M55Y | -0.135 ± 0.071
M55T | -0.213 ± 0.036
M55D | -0.435 ± 0.078
K64P | -0.343 ± 0.067
K64R | -0.054 ± 0.037
K64C | -0.117 ± 0.095
K64Q | 0.008 ± 0.052
K64M | -0.096 ± 0.069
K64L | -0.049 ± 0.046
G26I | -0.157 ± 0.083
G26D | 0.047 ± 0.076
G26L | -0.064 ± 0.034
L62A | -0.166 ± 0.04
L62Q | -0.843 ± 0.18
L62I | 0.014 ± 0.096
L62C | -0.096 ± 0.1
L62G | -0.744 ± 0.064
G30N | 0.019 ± 0.072
G30F | -0.001 ± 0.056
G30S | 0.061 ± 0.048
G30H | -0.013 ± 0.086
G30W | -0.013 ± 0.054

Variant | abundance fitness
G30P | -0.223 ± 0.085
G30A | -0.041 ± 0.046
T40D | 0.02 ± 0.089
T40N | -0.107 ± 0.083
T40E | -0.002 ± 0.063
T40H | -0.161 ± 0.13
T40Y | 0.031 ± 0.12
T40V | 0.068 ± 0.046
G34F | -0.177 ± 0.062
G34I | -0.248 ± 0.065
G34S | -0.062 ± 0.039
G34Y | -0.06 ± 0.11
G34T | -0.105 ± 0.086
L32H | -0.126 ± 0.14
L32R | -0.022 ± 0.035
L32G | -0.08 ± 0.034
L32P | -0.209 ± 0.077
L32F | -0.093 ± 0.063
G19L | -0.321 ± 0.043
G19M | -0.268 ± 0.075
G19R | -0.128 ± 0.029
G19W | -0.926 ± 0.11
G19T | -0.521 ± 0.077
G19K | -0.092 ± 0.07
G19N | -0.022 ± 0.099
G19Y | -0.908 ± 0.25

Variant | abundance fitness
N54Y | 0.09 ± 0.14
N54K | -0.017 ± 0.059
N54M | 0.103 ± 0.067
K31N | -0.166 ± 0.083
K31Y | -0.178 ± 0.075
K31Q | -0.04 ± 0.055
K31P | -0.142 ± 0.059
R9Q | -0.143 ± 0.058
L50D | -0.089 ± 0.06
L50C | -0.078 ± 0.026
L50A | -0.103 ± 0.033
L50K | -0.658 ± 0.073
L50S | -0.155 ± 0.036
L61P | -0.027 ± 0.032
L61C | 0.026 ± 0.048
L61G | -0.093 ± 0.032
L61M | -0.031 ± 0.044
L61Q | 0.013 ± 0.042
L61Y | -0.082 ± 0.15
L61F | 0.05 ± 0.096
W65R | -0.628 ± 0.066
W65V | -0.198 ± 0.065
W65A | -0.469 ± 0.063
F20H | -0.035 ± 0.092
F20Q | -0.081 ± 0.058
F20V | -0.13 ± 0.038

Variant | abundance fitness
Y33H | -0.01 ± 0.091
Y33D | -0.036 ± 0.079
E5R | 0 ± 0.042
E5L | -0.093 ± 0.044
E5W | -0.073 ± 0.054
E5F | -0.214 ± 0.2
A8G | -0.28 ± 0.034
A8S | -0.113 ± 0.045
A8I | -0.082 ± 0.031
A8E | -0.846 ± 0.11
A8C | 0.034 ± 0.063
A8T | -0.065 ± 0.054
A8D | -0.883 ± 0.19
G23K | 0.029 ± 0.064
G23Q | -0.07 ± 0.068
G23W | -0.076 ± 0.043
G23N | -0.089 ± 0.096
G23M | -0.01 ± 0.062
R14H | -0.118 ± 0.053
R14M | -0.061 ± 0.073
R14K | 0.024 ± 0.075
R14V | -0.128 ± 0.038
R14I | -0.261 ± 0.14
T10Y | -0.025 ± 0.024
T10V | -0.04 ± 0.018
T10Q | 0.015 ± 0.019

Variant | abundance fitness
T10M | -0.011 ± 0.019
K12L | -0.232 ± 0.19
K12H | -0.127 ± 0.49
K12N | -0.583 ± 0.47
K12A | -0.254 ± 0.38
E3V | -0.085 ± 0.054
E3C | -0.187 ± 0.065
E3Y | -0.127 ± 0.072
E3P | -0.76 ± 0.071
S51V | -0.507 ± 0.043
S51H | -0.049 ± 0.075
S51N | -0.037 ± 0.19
S51F | -0.832 ± 0.1
S51L | -0.785 ± 0.053
S51M | -0.317 ± 0.053
L4M | -0.032 ± 0.059
L4H | 0.052 ± 0.18
L4V | -0.08 ± 0.039
L4C | -0.784 ± 0.11
L4Q | -0.233 ± 0.07
L4N | -0.763 ± 0.38
F11Q | -1.01 ± 0.23
